Test results: article PMC10248732
Like-named read-outs stand apart in the source and are kept apart here.

Assays:
GST-OsLUX [1] = target: T1, GST-OsLUX (Oryza sativa, UniProt Q94DH3 1-238); experiment: EMSA
T1 sequence: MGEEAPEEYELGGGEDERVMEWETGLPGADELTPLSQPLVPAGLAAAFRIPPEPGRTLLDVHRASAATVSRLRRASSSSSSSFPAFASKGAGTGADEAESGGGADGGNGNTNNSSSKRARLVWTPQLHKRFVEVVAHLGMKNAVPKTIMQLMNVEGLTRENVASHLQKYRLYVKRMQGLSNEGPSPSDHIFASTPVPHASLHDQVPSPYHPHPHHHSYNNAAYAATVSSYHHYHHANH

GST-OsLUX [2] = target: T1, GST-OsLUX; experiment: EMSA; remark: listed apart in the source

B1: Hd1-P (S4 LBS, 3 copies) (dsDNA)
DNA 1: CGCTGGATTCGACTTGCGCTGGATTCGACTTGCGCTGGATTCGACTTG
DNA 2: CAAGTCGAATCCAGCGCAAGTCGAATCCAGCGCAAGTCGAATCCAGCG
binding result (GST-OsLUX [1]): binds

B2: Ghd7-P (LBS, 3 copies) (dsDNA)
DNA 1: CAGCACGAATCTTGAGCAGCACGAATCTTGAGCAGCACGAATCTTGAG
DNA 2: CTCAAGATTCGTGCTGCTCAAGATTCGTGCTGCTCAAGATTCGTGCTG
binding result (GST-OsLUX [2]): binds
